Source: patent publication US11149077B2, “Targeted therapeutics based on engineered proteins for tyrosine kinases receptors, including IGF-IR” (BRISTOL-MYERS SQUIBB COMPANY, priority 2006, dated 2021)
Numbering of substitutions follows the chain as printed.

B1: 218C04 (protein)
chain: VSDVPRDLEVVAATPTSLLISWSPYLRVARYYRITYGETGGNSPVQEFTVPSSARTATISGLKPGVDYTITVYAVTPSNIIGRHYGPISINYRT
B2: 338A06 (protein)
chain: VSDVPRDLEVVAATPTSLLISWSARLKVARYYRITYGETGGNSPVQEFTVPKNVYTATISGLKPGVDYTITVYAVTKMRDYRPISINYRT
B3: 385A08-PEG40: 385A08 (SEQ ID NO: 203) coupled via Cys97 to a mono-functional branched 40 kDa PEG (conjugate)
chain: GVSDVPRDLEVVAATPTSLLISWSARLKVARYYRITYGETGGNSPVQEFTVPKNVYTATISGLKPGVDYTITVYAVTRFRDYQPISINYRTEIDKPCQ
modifications: branched 40 kDa PEG via Cys97
B4: 338A05 (protein)
chain: VSDVPRDLEVVAATPTSLLISWSDSLKVSRYYRITYGETGGNSPVQEFTVPKQYHTATISGLKPGVDYTITVYAVTPSNIIGRHYGPISINYRTHHHHHH
B5: 353F10 (protein)
chain: VSDVPRDLEVVAATPTSLLISWPTHYKVARYYRITYGETGGNSPVQEFTVPKHTYTATISGLKPGVDYTITVYAVTTTKGLRHYGPISINYRTHHHHHH
B6: 353H09 (protein)
chain: VSDVPRDLEVVAATPTSLLISWSDKLKVQRYYRITYGETGGNSPVQEFTVPKHDRTATISGLKPGVDYTITVYAVTKMRDYRPISINYRTHHHHHH
B7: 354A10 (protein)
chain: VSDVPRDLEVVAATPTSLLISWSNRLVVKRYYRITYGETGGNSPVQEFTVPHQMKTATISGLKPGVDYTITVYAVTPGGYSGRNYGPISINYRTHHHHHH
B8: 339A01 (protein)
chain: B6 chain with D24T, K25A, D54S, R55H
B9: 385A08 (protein)
chain: B6 chain with D24A, K25R, Q29A, H53N, D54V, R55Y, K77R, M78F, R82Q
B10: 386A03 (protein)
chain: B6 chain with D24A, K25R, Q29A, H53N, D54V, R55Y, K77N, M78L, R82G
B11: 387B01 (protein)
chain: B6 chain with D24A, K25R, Q29A, H53N, D54V, R55Y, K77S, M78L, R82G
B12: 386F10 (protein)
chain: B6 chain with D24A, K25R, Q29A, H53N, D54V, R55Y, K77L, M78L, R82G

How the values were obtained:
human IGF-IR = biological target: T1, human IGF-IR (Homo sapiens, UniProt P08069); assay: Surface plasmon resonance (BIAcore) binding kinetics and affinity on immobilized IGF-IR
T1 construct: The extracellular domain of human IGF-IR (aa 1-932) was cloned into a mammalian expression vector; made in house
Description: The binding kinetics of fibronectin-based scaffold proteins binding proteins to the target was measured using BIAcore 2000 or 3000 biosensors (Pharmacia Biosensor). A capture assay was developed utilizing an IGF-IR-Fc fusion. A similar reagent had been described by Forbes et al. (Forbes et al. 2002, European J. Biochemistry, 269, 961-968). The extracellular domain of human IGF-IR (aa 1-932) was cloned into a mammalian expression vector containing the hinge and constant regions of human IgG1. Transient transfection of the plasmid produced a fusion protein, IGF-IR-Fc which was subsequently purified by Protein A chromatography and captured on Protein A immobilized on Biasensor CM5 chips by amine coupling. The kinetic analysis involved the capture of IGF-IR-Fc on Protein A followed by injection of the fibronectin-based scaffold protein in solution and regeneration of the Protein A surface by glycine pH 2.0. Sensorgrams were obtained at each concentration and were evaluated using a program Biaevaluation, BIA Evaluation 2.0 (BIAcore), to determine the rate constants ka (kon) and kd (koff) The dissociation constant, KD was calculated from the ratio of rate constants koff/kon. Typically, a concentration series (2 uM to 0 uM) of purified fibronectin-based scaffold protein was evaluated for binding to protein A captured human IGF-IR-Fc fusion protein.

[1] = Size-exclusion chromatography (solution properties, monomericity); assay type: physicochemical
Description: Size-exclusion chromatography (SEC) was performed using a TSKgel Super SW2000 column (TOSOH Biosciences, LLC), 4.6 mm×30 cm, on an Agilent 1100 HPLC system with UV detection at A214 nm and A280 nm and with fluorescence detection (excitation=280 nm, emission=350 nm). A buffer of 100 mM sodium sulfate, 100 mM sodium phosphate, 150 mM sodium chloride, pH 6.8 at a flow rate of 100 μL/min was employed. Samples (0.1 to 1 μg each) at a concentration of approximately 100 μg/mL were injected separately. Gel filtration standards (Bio-Rad Laboratories, Hercules, Calif.) were used for molecular weight calibration.

[2] = system: human pancreatic adenocarcinoma cell line BxPC-3; assay: Cell mitogenesis assay: IGF-I-mediated proliferation, 3H-thymidine; assay type: cell-based; conditions: IGF-I-dependent proliferation, BxPC-3, 24 hour IGF-I exposure
Description: The purified, optimized IGF-IR clones were evaluated in cell-based assays in order to confirm activity.
The human pancreatic adenocarcinoma cell line BxPC-3 (ATCC, Manassas, Va.) was plated in 96 well plates at a concentration of 2500 cells per well in RPMI 1640 (Invitrogen, Carlsbad, Calif.) containing 10% fetal bovine serum (Hyclone, Logan, Utah). The following day, cells were washed in starvation medium consisting of RPMI 1640 containing 0.1% BSA (Sigma, St. Louis, Mo.). Washed cells were pre-incubated for four hours in starvation medium containing various concentrations of each IGF-IR antagonist. […] For the final four hours of incubation, cells were exposed to [^3H]-Thymidine (0.25 μCi/well; Perkin Elmer, Wellesley, Mass.). After the incubation period, cells were washed in PBS, lysed in 100 μL buffer consisting of 0.1% SDS+0.5 N NaOH, and counted on a TopCount NXT Scintillation Counter (Perkin Elmer, Wellesley, Mass.). The data were analyzed using SigmaPlot (Systat Software, Point Richmond, Calif.).

[3] = Differential scanning calorimetry (thermal stability, Tm); assay type: physicochemical; conditions: for Tm: DSC
Description: Differential Scanning calorimetry (DSC) analysis of midscaled clones was performed to determine thermal stability. A 1 mg/ml solution of appropriate clone was scanned in a N-DSC II calorimeter (calorimetry Sciences Corp) by ramping the temperature from 5° C. to 95° C. at a rate of 1 degree per minute under 3 atm pressure. The data was analyzed vs. a control run of the appropriate buffer using a best fit using Orgin Software (OrginLab Corp).

human insulin receptor = biological target: T2, human insulin receptor (Homo sapiens, UniProt P06213); assay: BIAcore binding to immobilized human insulin receptor; conditions: percentage of signal for insulin binding at similar concentration
T2 construct: purchased R&D Systems (Minneapolis, Minn.)
Description: One liter E. coli growths of selected optimized clones were prepared and the proteins were purified.
In brief, 60 ug/mL of IR diluted in acetate 4.5 was coupled/immobilized to a level of 8300 RU and 11.9 ug/mL of VEGF-R2-Fc diluted in acetate 5.0 was immobilized to a level of 9700 RU on flow cells 2 and 3. A blank reference surface was prepared on FC1. […] Fibronectin-based scaffold proteins were diluted to 10 uM in HBS-EP (10 mM Hepes 150 mM NaCl 3 mM EDTA 0.05% Surfactant P20) and injected at 20 uL/min for 3 minutes over the flow cells at 25 C and dissociation was observed over 10 mins.

RH41 sarcoma xenografts = assay: In vivo antitumor activity in RH41 sarcoma xenografts; conditions: for % TGI: calculated on day 39; for LCK: gross log cell kill; for AVE weight change: Day 20 to Day 42
Description: *Tumor growth inhibition and probability values calculated on day 39. ^aVehicle was 80% PEG400, 20% dH2O. ^bVehicle was PBS. ^cAverage weight change for each group is the mean difference between weight at the start of treatment (Day 20) and after the end of treatment (Day 42). TVDT was calculated for a size of 500 mg Abbreviations used are as follows: po, oral route; ip, intraperitoneal route; LCK, gross log cell kill calculated as LCK=T−C/(3.32×TVDT) where T-C is the difference in time in days for the treated tumors (T) to reach a predetermined size (tumor target size) relative to the vehicle control group (C) divided by the tumor volume doubling time (TVDT) multiplied by 3.32.
Tumors were propagated in nude mice. Tumor passages occurred every four weeks for human RH41 xenografts. With regard to efficacy testing human tumor xenografts were implanted in nude mice. All tumor passages were subcutaneous (sc).
Antitumor activity was evaluated in terms of: a) cures, and for the murine tumor models, increases in lifespan reflected by the relative median survival time (MST) of treated (T) versus control (C) groups (i.e. % T/C values); and b) primary tumor growth inhibition determined by calculating the relative median times for T and C mice to grow tumors of a predetermined “target” size (1 gm for all sc tumor models described) and expressed as T-C values, in days. The definition of a cured mouse was one whose tumor was undetectable, or <35 mg, when assessed more than 10 tumor volume doubling times (TVDTs) post-treatment. The activity criterion for tumor inhibition/reduction was a statistically significant delay in primary tumor growth consistent with 1 gross log cell kill (LCK). The following formula was employed to calculate LCK: LCK=T−C/(3.32×TVDT)
Where, TVDT=median time (days) for control tumors to reach target size—median time (days) for control tumors to reach half the target size. […] The maximum tolerated dose (MTD) is defined as the dose level immediately […] which excessive toxicity (i.e. more than one death) occurred. […] Statistical evaluations of data were performed using Gehan's generalized Wilcoxon test (Gehan, Biometrika 52:203-223, 1965). Western Blot Analysis of 385A08-Fc

[4] = Table 4, optimized 218C04 clones
[5] = Table 7, FG loop optimized 338A06 clones

| Molecule | % IR Binding at 10 μM (human insulin receptor; Table 8) | ka (human IGF-IR; [4]) | kd (human IGF-IR; [4]) | Tm ([3]; Table 3) | Tm ([3]; Table 9) | ka (human IGF-IR; [5]) | kd (human IGF-IR; [5]) | also measured |
| --- | --- | --- | --- | --- | --- | --- | --- | --- |
| B1 | – | – | – | – | – | – | – | Kd (human IGF-IR; clone in solution phase, immobilized IGF-IR): 1.8 nM; solution behaviour by SEC (monomer / aggregation) [1]: virtually all monomeric |
| B2 | 0% | 2.2 1/M*s × 10^+6 | 4.3 1/s × 10^−4 | – | – | – | – | IC50 [2]: 10 to 20 nM; unfolding temperature (Tm) ([3]; DSC (FIG. 8)): 62 °C; % IR Binding at 10 μM (human insulin receptor; Table 5): 2%; Kd (human IGF-IR; [4]): 0.069 nM; solution behaviour by SEC (monomer / aggregation) [1]: monomeric behavior |
| B3 | – | – | – | – | – | – | – | Outcome by (% TGI) (RH41 sarcoma xenografts; 40 mg/kg, TIWx3, 20 ip): A (A % TGI value of >50% was considered active); % TGI (RH41 sarcoma xenografts; 40 mg/kg, TIWx3, 20 ip): 56%; LCK (RH41 sarcoma xenografts; 40 mg/kg, TIWx3, 20 ip): 0.4; off-rate (kd) relative to unmodified 385A08 (human IGF-IR): slightly increased; slower on-rate (ka) relative to unmodified 385A08 (human IGF-IR): approximately 10 fold; ka (human IGF-IR; Table 10, PEGylated variants): 0.6 1/M*s × 10^+6; kd (human IGF-IR; Table 10, PEGylated variants): 2.1 1/s × 10^−4 |
| B4 | – | 1.3 1/M*s × 10^+6 | 3.3 1/s × 10^−4 | 68 °C | – | – | – | – |
| B5 | – | 3.7 1/M*s × 10^+6 | 2.1 1/s × 10^−4 | 59 °C | – | – | – | – |
| B6 | – | 3.8 1/M*s × 10^+6 | 2.2 1/s × 10^−4 | 55 °C | – | – | – | % IR Binding at 10 μM (human insulin receptor; Table 5): 0% |
| B7 | – | 1.1 1/M*s × 10^+6 | 1.8 1/s × 10^−4 | 46 °C | – | – | – | – |
| B8 | – | 1.2 1/M*s × 10^+6 | 6.7 1/s × 10^−4 | – | – | – | – | – |
| B9 | 0% | – | – | – | 59 °C | 5.7 1/M*s × 10^+6 | 1.9 1/s × 10^−4 | AVE weight change (RH41 sarcoma xenografts; 20 mg/kg, 2qdx20, 28 ip): 0.6 g; % TGI (RH41 sarcoma xenografts; 20 mg/kg, 2qdx20, 28 ip): 33%; LCK (RH41 sarcoma xenografts; 20 mg/kg, 2qdx20, 28 ip): 0.2; AVE weight change (RH41 sarcoma xenografts; 40 mg/kg, 2qdx20, 28 ip): 1.0 g; % TGI (RH41 sarcoma xenografts; 40 mg/kg, 2qdx20, 28 ip): 19%; LCK (RH41 sarcoma xenografts; 40 mg/kg, 2qdx20, 28 ip): 0.2; ka (human IGF-IR; Table 10, PEGylated variants): 6.9 1/M*s × 10^+6; kd (human IGF-IR; Table 10, PEGylated variants): 1.6 1/s × 10^−4 |
| B10 | 3% | – | – | – | 62 °C | 5.2 1/M*s × 10^+6 | 4.6 1/s × 10^−4 | – |
| B11 | 0% | – | – | – | 63 °C | 6.5 1/M*s × 10^+6 | 4.4 1/s × 10^−4 | – |
| B12 | 3% | – | – | – | 58 °C | 1.9 1/M*s × 10^+6 | 2.3 1/s × 10^−4 | – |
